Reference: US20150309037A1

Tests used:
[1] = target: GDNF family receptor alpha 1 (GFRA1) (UniProt P56159); assay: cell-based or functional assay
[2] = target: trans-membrane receptor kinase RET (UniProt P07949); assay: cell-based or functional assay
Sequence of trans-membrane receptor kinase RET (P07949 29-1114 limits assumed): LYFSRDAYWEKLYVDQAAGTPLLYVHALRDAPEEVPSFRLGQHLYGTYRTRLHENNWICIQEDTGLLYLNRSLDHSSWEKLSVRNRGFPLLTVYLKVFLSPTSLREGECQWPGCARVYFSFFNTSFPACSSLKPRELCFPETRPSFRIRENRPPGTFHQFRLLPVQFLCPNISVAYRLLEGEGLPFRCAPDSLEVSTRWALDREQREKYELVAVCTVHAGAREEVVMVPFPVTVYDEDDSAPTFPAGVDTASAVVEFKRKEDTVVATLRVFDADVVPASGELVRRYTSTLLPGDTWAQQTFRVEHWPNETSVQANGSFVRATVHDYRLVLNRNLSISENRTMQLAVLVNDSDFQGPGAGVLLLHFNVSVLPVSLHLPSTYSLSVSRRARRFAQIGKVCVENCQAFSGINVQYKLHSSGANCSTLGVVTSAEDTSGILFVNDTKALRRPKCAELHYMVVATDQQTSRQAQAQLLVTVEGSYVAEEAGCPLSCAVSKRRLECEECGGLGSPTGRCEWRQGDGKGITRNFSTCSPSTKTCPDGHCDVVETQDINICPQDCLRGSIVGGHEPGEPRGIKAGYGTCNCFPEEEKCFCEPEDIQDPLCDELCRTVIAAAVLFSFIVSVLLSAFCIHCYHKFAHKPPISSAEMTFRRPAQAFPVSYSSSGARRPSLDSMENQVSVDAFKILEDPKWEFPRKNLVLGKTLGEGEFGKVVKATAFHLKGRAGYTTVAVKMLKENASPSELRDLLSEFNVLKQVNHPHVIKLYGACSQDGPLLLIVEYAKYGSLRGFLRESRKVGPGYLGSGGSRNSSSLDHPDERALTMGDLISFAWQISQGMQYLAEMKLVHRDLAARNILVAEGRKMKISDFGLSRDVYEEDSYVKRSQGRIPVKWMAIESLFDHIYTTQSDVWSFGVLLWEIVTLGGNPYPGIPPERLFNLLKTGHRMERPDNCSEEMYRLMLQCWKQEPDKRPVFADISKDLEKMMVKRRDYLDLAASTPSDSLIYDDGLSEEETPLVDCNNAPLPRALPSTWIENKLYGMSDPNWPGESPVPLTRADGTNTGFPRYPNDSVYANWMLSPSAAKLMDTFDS

Sequence of GDNF family receptor alpha 1 (GFRA1) (P56159 25-429 limits assumed): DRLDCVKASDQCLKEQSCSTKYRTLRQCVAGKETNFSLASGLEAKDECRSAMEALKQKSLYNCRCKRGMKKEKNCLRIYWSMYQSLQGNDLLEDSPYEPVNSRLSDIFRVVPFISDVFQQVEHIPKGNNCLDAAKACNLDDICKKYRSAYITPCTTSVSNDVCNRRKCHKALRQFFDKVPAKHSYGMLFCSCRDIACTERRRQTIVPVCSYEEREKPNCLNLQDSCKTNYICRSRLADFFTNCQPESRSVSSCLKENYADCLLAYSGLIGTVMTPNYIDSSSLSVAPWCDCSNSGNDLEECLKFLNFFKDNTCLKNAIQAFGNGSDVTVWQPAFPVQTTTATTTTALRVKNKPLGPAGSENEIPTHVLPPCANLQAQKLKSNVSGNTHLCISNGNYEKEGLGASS

proliferation, GDNF concentration of maximum stimulation [1]: 10 ng/mL
proliferation, GDNF concentration of maximum stimulation [2]: 10 ng/mL
Substance: glial cell line-derived neurotrophic factor (GDNF) (from UniProt P39905 78-211) (ligand)
